# In paper PMC10397247:
# Tests used:
# Experiment in all cases: two-hybrid library CCNG1;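 also: natural log of median RNA to DNA barcode read ratio; higher means stronger binding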
# [1] = target: T1, 4H2937-bA
# T1 chain: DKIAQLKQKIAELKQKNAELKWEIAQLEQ
# [2] = target: T2, 4H2944-bA
# T2 chain: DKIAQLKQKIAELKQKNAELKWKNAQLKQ
# [3] = target: T3, 4H342-bA
# T3 chain: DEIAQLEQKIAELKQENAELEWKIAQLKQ
# [4] = target: T4, 4H48-bA
# T4 chain: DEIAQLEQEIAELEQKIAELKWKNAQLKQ
# [5] = target: T5, 4H491-bA
# T5 chain: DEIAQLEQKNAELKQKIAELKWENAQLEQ
# [6] = target: T6, 4H2937-bH
# T6 chain: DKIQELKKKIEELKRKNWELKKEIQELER
# [7] = target: T7, 4H2944-bH
# T7 chain: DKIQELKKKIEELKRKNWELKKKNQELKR
# [8] = target: T8, 4H342-bH
# T8 chain: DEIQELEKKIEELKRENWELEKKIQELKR
# [9] = target: T9, 4H48-bH
# T9 chain: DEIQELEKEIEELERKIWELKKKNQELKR
# [10] = target: T10, 4H491-bH
# T10 chain: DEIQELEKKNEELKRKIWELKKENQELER
# [11] = target: T11, 4H2134-bA
# T11 chain: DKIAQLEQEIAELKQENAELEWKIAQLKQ
# [12] = target: T12, 4H2143-bA
# T12 chain: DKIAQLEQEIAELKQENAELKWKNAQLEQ
# [13] = target: T13, 4H2223-bA
# T13 chain: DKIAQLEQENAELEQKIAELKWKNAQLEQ
# [14] = target: T14, 4H2438-bA
# T14 chain: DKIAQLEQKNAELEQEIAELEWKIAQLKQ
# [15] = target: T15, 4H2473-bA
# T15 chain: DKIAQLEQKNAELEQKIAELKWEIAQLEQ
# [16] = target: T16, 4H2503-bA
# T16 chain: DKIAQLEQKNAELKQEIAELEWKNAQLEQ
# [17] = target: T17, 4H2588-bA
# T17 chain: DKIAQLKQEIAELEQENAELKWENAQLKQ
# [18] = target: T18, 4H2692-bA
# T18 chain: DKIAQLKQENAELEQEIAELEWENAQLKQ
# [19] = target: T19, 4H2717-bA
# T19 chain: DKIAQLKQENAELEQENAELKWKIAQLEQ
# [20] = target: T20, 4H2839-bA
# T20 chain: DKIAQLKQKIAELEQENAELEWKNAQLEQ
# [21] = target: T21, 4H2915-bA
# T21 chain: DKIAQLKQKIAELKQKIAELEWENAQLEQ
# [22] = target: T22, 4H3057-bA
# T22 chain: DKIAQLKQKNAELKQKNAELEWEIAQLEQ
# [23] = target: T23, 4H319-bA
# T23 chain: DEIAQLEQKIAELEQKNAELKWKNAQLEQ
# [24] = target: T24, 4H3277-bA
# T24 chain: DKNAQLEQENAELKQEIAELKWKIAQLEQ
# [25] = target: T25, 4H348-bA
# T25 chain: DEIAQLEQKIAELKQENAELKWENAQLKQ
# [26] = target: T26, 4H40-bA
# T26 chain: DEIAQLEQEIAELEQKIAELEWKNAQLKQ
# [27] = target: T27, 4H477-bA
# T27 chain: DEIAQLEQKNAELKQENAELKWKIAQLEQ
# [28] = target: T28, 4H492-bA
# T28 chain: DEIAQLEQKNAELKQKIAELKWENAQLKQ
# [29] = target: T29, 4H741-bA
# T29 chain: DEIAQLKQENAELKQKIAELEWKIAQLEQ
# [30] = target: T30, O14-bN
# T30 chain: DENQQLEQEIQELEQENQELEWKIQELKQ
# [31] = target: T31, 4H118-bH
# T31 chain: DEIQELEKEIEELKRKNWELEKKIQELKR
# [32] = target: T32, 4H170-bH
# T32 chain: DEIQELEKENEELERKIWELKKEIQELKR
# [33] = target: T33, 4H1831-bH
# T33 chain: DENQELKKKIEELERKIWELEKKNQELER
# [34] = target: T34, 4H2586-bH
# T34 chain: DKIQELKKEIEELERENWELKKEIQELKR
# [35] = target: T35, 4H2627-bH
# T35 chain: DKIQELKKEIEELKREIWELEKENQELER
# [36] = target: T36, 4H2673-bH
# T36 chain: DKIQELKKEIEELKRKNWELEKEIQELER
# [37] = target: T37, 4H2702-bH
# T37 chain: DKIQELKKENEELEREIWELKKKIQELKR
# [38] = target: T38, 4H3010-bH
# T38 chain: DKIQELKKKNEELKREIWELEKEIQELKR
# [39] = target: T39, 4H3112-bH
# T39 chain: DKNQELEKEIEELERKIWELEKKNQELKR
# [40] = target: T40, 4H3427-bH
# T40 chain: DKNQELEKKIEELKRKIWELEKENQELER
# [41] = target: T41, 4H346-bH
# T41 chain: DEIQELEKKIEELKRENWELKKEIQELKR
# [42] = target: T42, 4H3926-bH
# T42 chain: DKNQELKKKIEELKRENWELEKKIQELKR
# [43] = target: T43, 4H3961-bA
# T43 chain: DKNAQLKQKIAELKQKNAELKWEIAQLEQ
# [44] = target: T44, 4H4073-bH
# T44 chain: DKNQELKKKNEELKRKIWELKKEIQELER
# [45] = target: T45, 4H457-bH
# T45 chain: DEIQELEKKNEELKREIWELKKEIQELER
# [46] = target: T46, 4H575-bH
# T46 chain: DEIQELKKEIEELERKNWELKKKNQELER
# [47] = target: T47, 4H683-bH
# T47 chain: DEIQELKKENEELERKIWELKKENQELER
# [48] = target: T48, 4H754-bH
# T48 chain: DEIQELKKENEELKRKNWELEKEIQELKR
# [49] = target: T49, 4H780-bH
# T49 chain: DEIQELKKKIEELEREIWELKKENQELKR
# [50] = target: T50, 4H797-bH
# T50 chain: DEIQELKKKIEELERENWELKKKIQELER
# [51] = target: T51, 4H855-bH
# T51 chain: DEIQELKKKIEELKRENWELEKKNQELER
# [52] = target: T52, 4H883-bN
# T52 chain: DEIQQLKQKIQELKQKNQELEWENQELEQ
# [53] = target: T53, 4H918-bH
# T53 chain: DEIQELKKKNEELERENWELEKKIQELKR
# [54] = target: T54, 4H953-bH
# T54 chain: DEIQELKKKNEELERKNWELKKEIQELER
# [55] = target: T55, 4H968-bH
# T55 chain: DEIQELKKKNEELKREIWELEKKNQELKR
# [56] = target: T56, 4H2937-bN
# T56 chain: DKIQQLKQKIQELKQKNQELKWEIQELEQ
# [57] = target: T57, 4H2944-bN
# T57 chain: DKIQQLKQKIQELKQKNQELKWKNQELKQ
# [58] = target: T58, 4H342-bN
# T58 chain: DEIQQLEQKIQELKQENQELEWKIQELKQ
# [59] = target: T59, 4H48-bN
# T59 chain: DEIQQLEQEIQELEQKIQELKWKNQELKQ
# [60] = target: T60, 4H491-bN
# T60 chain: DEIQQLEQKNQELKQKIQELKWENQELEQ
binder,measurement,setting,value
DKIAQLKQKIAELKQKNAELKWEIAQLEQ [4H2937-bA],interaction score,[1],-0.419
same,interaction score,[2],-0.548
same,interaction score,[3],1.61
same,interaction score,[4],0.573
same,interaction score,[5],-0.0219
DKIQELKKKIEELKRKNWELKKEIQELER [4H2937-bH],interaction score,[6],0.307
same,interaction score,[7],-0.833
same,interaction score,[8],1.21
same,interaction score,[9],0.185
same,interaction score,[10],0.828
DKIAQLEQEIAELKQENAELEWKIAQLKQ [4H2134-bA],interaction score,[11],1.43
same,interaction score,[12],1.32
same,interaction score,[13],-0.522
same,interaction score,[14],0.819
same,interaction score,[15],0.432
same,interaction score,[16],0.834
same,interaction score,[17],0.531
same,interaction score,[18],-0.139
same,interaction score,[19],-0.277
same,interaction score,[20],0.969
same,interaction score,[21],1.66
same,interaction score,[22],2.33
same,interaction score,[23],-0.399
same,interaction score,[24],0.0479
same,interaction score,[25],-1.14
same,interaction score,[26],0.811
same,interaction score,[27],0.935
same,interaction score,[28],0.114
same,interaction score,[29],-1.46
same,interaction score,[30],-1.45
DEIQELEKEIEELKRKNWELEKKIQELKR [4H118-bH],interaction score,[31],1.75
same,interaction score,[32],1.57
same,interaction score,[33],-0.127
same,interaction score,[34],0.817
same,interaction score,[35],1.09
same,interaction score,[36],1.9
same,interaction score,[37],0.513
same,interaction score,[38],1.94
same,interaction score,[39],0.102
same,interaction score,[40],1.04
same,interaction score,[41],0.654
same,interaction score,[42],1.57
same,interaction score,[43],1.46
same,interaction score,[44],0.239
same,interaction score,[45],0.505
same,interaction score,[46],-0.101
same,interaction score,[47],-0.584
same,interaction score,[48],0.181
same,interaction score,[49],0.443
same,interaction score,[50],-0.304
same,interaction score,[51],0.119
same,interaction score,[52],1.72
same,interaction score,[53],0.604
same,interaction score,[54],0.224
same,interaction score,[55],1.49
DKIQQLKQKIQELKQKNQELKWEIQELEQ [4H2937-bN],interaction score,[56],-0.616
same,interaction score,[57],-1.12
same,interaction score,[58],1.46
same,interaction score,[59],-0.313
same,interaction score,[60],-1.11
